The values below come from article PMC10288612.

The data set concerns the target HER-2/neu extracellular domain (ErbB2) (human, UniProt P04626 23-652). The data set is described as follows: electrochemical bead sandwich assay.
Take GCAGCGGTGTGGGG (ssDNA) [monomer]: the Kd is 0.121 pM.

GCAGCGGTGTGGGGGCAGCGGTGTGGGGGCAGCGGTGTGGGGTTTTT (ssDNA) [trimer]: the dissociation constant (Kd) was found to be 0.0261 pM.

TTTTTTTTTGCAGCGGTGTGGGG (ssDNA) [monomer-T (monomer-9T)]: the Kd came to 0.085 pM.

As for TTTTTTGCAGCGGTGTGGGGGCAGCGGTGTGGGG (ssDNA) [dimer], the Kd came out at 0.0374 pM.

For orientation: Kd means the equilibrium constant for the complex coming apart. Higher therefore signals lower affinity.
